According to the supplement of paper PMC10065799, “High-throughput profiling of sequence recognition by tyrosine kinases and SH2 domains using bacterial peptide display” (eLife, 2023):

Columns and labels:
c-Src SH2 = assay: SH2 binding enrichment of the phosphorylated peptide, bacterial display (enrichment ratio); higher = better substrate or ligand; peptides without Tyr show the background
Grb2 SH2 = Grb2 SH2 (UniProt P62993); assay: as above
SHP2-C SH2 = assay: as above
AncSZ = assay: phosphorylation enrichment, bacterial display (enrichment ratio); higher = better substrate or ligand; peptides without Tyr show the background
Jak2 = Jak2 (UniProt O60674); assay: as above
Fes = Fes (UniProt P07332); assay: as above
Hck = Hck (UniProt P08631); assay: as above
c-Src = assay: as above
c-Abl (mouse) = assay: as above
MERTK = MERTK (UniProt Q12866); assay: as above
Fyn = Fyn (UniProt P06241); assay: as above
EPHB2 = EPHB2 (UniProt P29323); assay: as above
FGFR3 = FGFR3 (UniProt P22607); assay: as above
Fer (mouse) = assay: as above
EPHB1 = EPHB1 (UniProt P54762); assay: as above
FGFR1 = FGFR1 (UniProt P11362); assay: as above
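Throughout, for SH2 binding enrichment of the phosphorylated peptide, bacterial display: peptide library displayed on the E. coli surface as eCPX fusions, selected cells deep-sequenced, score is each peptide's frequency after selection divided by its frequency in the input.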
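Throughout, for phosphorylation enrichment, bacterial display: 11-residue human phosphosite peptides and single-mutation variants displayed on the E. coli surface, counted by deep sequencing, each peptide's frequency after selection divided by its frequency in the unselected input library; frequency after pTyr selection over input frequency; kinase dosed for 20-30% of maximal phosphorylation in three min.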

Hck, sequence (P08631 whole entry, looked up): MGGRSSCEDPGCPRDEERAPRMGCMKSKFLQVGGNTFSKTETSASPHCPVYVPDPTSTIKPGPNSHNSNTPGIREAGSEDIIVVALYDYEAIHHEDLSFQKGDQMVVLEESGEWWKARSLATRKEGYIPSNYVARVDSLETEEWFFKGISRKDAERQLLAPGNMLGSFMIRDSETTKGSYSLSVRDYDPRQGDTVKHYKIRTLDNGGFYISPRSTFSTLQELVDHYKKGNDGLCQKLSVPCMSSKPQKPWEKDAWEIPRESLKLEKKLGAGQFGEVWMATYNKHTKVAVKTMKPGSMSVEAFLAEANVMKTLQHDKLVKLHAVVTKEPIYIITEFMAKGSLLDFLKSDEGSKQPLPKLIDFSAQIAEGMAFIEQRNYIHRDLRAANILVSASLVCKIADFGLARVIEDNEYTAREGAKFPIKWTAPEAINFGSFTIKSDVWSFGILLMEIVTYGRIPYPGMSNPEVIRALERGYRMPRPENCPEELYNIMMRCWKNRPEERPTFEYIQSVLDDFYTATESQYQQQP
EPHB1, sequence (P54762 whole entry, looked up): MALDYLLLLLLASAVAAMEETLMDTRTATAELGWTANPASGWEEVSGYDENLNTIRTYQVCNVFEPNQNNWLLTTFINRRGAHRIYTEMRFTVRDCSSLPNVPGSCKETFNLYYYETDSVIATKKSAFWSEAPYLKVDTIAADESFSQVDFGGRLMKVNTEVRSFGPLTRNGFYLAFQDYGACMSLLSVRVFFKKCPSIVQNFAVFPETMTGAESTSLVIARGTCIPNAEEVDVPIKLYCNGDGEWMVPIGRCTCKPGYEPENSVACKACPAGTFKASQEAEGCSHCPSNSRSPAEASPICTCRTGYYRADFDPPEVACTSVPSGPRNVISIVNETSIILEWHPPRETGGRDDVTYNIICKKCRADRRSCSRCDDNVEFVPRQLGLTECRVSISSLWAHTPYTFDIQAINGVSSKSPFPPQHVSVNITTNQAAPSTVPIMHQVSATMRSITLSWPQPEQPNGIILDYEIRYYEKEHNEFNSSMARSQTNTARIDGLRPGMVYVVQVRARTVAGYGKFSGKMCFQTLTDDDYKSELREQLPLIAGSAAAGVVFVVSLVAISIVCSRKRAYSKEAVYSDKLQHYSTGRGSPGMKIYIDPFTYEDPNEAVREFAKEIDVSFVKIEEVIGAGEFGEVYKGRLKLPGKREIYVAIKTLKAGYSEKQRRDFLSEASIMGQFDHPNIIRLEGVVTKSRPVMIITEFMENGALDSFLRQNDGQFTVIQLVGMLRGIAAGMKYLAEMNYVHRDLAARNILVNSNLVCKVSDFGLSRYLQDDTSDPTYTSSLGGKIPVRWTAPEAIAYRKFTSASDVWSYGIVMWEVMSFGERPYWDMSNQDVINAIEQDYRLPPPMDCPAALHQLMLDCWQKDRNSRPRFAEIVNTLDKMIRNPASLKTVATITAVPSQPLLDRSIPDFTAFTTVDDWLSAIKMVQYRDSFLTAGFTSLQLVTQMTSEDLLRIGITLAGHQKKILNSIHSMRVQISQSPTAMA
FGFR3, sequence (P22607 whole entry, looked up): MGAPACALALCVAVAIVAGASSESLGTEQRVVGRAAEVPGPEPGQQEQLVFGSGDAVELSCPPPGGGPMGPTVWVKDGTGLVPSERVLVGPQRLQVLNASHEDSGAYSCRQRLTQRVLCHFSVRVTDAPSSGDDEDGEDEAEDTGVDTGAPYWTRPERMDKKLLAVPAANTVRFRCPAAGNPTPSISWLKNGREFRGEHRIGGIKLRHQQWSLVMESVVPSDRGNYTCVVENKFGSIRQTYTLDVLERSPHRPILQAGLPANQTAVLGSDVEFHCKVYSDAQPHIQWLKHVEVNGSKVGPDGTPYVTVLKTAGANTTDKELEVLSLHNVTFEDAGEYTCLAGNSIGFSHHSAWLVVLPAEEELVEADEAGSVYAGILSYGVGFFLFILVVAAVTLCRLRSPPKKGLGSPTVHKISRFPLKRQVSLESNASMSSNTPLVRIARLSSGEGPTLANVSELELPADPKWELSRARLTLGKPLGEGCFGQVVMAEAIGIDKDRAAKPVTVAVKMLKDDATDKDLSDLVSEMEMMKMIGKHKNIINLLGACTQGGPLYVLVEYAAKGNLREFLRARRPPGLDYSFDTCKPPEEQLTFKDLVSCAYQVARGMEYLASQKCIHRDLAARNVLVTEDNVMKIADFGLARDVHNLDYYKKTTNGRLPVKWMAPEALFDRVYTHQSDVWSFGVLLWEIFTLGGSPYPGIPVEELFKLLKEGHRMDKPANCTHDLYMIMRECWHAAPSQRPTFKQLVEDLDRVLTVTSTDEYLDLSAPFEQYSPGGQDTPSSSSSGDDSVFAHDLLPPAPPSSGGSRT
Jak2, sequence (O60674 whole entry, looked up): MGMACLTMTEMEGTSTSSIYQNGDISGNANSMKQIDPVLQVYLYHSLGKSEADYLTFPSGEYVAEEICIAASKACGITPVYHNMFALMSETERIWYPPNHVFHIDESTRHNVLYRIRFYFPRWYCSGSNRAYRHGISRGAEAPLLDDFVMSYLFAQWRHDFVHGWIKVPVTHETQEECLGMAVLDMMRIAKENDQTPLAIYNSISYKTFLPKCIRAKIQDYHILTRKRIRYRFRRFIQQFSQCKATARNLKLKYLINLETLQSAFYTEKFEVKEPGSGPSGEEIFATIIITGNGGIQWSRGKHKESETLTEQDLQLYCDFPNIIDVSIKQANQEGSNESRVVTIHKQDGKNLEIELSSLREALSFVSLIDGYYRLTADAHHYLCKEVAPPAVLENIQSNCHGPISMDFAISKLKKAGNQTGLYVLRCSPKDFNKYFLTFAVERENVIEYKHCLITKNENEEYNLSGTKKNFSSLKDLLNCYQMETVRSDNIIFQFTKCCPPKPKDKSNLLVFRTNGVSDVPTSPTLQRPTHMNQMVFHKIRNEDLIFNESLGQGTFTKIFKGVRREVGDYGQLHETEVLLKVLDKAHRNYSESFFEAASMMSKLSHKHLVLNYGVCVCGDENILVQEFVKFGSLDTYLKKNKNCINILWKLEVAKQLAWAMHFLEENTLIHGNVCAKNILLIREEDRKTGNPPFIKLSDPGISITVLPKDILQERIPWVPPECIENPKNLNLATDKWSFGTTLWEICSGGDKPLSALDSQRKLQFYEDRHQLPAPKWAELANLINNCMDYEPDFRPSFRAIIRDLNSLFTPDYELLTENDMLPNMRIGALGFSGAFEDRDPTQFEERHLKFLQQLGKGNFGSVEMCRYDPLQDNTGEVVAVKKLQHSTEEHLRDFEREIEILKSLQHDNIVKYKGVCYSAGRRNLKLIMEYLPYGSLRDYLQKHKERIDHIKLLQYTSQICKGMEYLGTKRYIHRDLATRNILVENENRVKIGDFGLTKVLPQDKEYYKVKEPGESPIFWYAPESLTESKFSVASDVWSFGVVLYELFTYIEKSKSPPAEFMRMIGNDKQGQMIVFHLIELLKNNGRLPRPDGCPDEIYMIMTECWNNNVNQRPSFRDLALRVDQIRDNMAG
Fyn, sequence (P06241 whole entry, looked up): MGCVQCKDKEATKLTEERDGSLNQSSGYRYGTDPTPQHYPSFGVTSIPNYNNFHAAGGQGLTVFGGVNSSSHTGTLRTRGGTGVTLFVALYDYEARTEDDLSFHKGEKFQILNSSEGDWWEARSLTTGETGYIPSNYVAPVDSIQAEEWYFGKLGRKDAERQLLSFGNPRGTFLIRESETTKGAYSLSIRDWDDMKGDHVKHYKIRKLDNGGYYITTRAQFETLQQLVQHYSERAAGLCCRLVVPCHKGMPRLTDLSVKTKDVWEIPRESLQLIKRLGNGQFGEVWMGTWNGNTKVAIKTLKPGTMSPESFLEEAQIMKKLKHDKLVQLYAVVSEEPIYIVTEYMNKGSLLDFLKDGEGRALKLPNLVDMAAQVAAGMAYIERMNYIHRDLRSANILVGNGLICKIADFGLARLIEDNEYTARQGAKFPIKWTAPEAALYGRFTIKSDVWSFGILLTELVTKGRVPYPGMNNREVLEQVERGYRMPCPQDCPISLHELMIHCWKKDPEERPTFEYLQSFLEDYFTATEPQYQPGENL
MERTK, sequence (Q12866 whole entry, looked up): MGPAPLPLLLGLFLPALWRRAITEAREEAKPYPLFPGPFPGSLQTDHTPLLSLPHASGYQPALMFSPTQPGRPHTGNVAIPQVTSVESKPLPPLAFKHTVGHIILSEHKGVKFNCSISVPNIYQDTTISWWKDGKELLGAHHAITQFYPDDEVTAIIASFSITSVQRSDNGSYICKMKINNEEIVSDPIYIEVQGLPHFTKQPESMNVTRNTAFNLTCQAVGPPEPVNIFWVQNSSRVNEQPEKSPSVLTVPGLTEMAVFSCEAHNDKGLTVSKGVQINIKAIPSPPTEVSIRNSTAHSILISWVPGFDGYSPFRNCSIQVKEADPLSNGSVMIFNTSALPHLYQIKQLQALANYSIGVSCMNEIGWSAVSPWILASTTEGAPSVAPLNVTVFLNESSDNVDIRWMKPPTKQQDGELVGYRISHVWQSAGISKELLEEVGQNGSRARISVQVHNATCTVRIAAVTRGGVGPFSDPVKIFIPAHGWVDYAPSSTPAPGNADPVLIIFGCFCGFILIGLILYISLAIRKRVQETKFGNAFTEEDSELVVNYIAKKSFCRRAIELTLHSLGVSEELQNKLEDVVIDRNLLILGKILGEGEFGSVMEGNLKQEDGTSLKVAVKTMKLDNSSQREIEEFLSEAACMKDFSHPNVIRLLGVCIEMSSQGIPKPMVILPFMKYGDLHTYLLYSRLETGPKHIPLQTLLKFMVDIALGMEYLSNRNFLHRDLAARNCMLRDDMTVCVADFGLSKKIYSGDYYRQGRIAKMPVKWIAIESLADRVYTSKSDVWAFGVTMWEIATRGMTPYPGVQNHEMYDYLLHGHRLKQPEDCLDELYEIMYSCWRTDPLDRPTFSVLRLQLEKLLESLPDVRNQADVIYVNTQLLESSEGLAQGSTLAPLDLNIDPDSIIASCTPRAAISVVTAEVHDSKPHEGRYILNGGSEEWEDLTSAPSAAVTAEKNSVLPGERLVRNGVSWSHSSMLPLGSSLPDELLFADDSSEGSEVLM

| Sequence | SH2 binding enrichment (c-Src SH2) | SH2 binding enrichment (Grb2 SH2) | SH2 binding enrichment (SHP2-C SH2) | phosphorylation enrichment (AncSZ) | phosphorylation enrichment (Jak2) | phosphorylation enrichment (Fes) | phosphorylation enrichment (Hck) | phosphorylation enrichment (c-Src) | phosphorylation enrichment (c-Abl (mouse)) | phosphorylation enrichment (MERTK) | phosphorylation enrichment (Fyn) | phosphorylation enrichment (EPHB2) | phosphorylation enrichment (FGFR3) | phosphorylation enrichment (Fer (mouse)) | phosphorylation enrichment (EPHB1) | phosphorylation enrichment (FGFR1) |
| --- | --- | --- | --- | --- | --- | --- | --- | --- | --- | --- | --- | --- | --- | --- | --- | --- |
| ALAHKYLGGGG [HBB_Y146_H147L] | 0.503 | 1.01 | 0.608 | 0.378 | 0.464 | 0.389 | 0.347 | 0.278 | 0.289 | 0.407 | 0.366 | 0.387 | 0.325 | 0.269 | 0.324 | 0.307 |
| SSNLYYRWLTA [CNGA3_Y169] | 0.545 | 0.791 | 0.763 | 1.04 | 4.69 | 0.897 | 4.9 | 2.87 | 3.22 | 8.61 | 2 | 1.91 | 6.24 | 1.98 | 1.52 | 6.93 |
| DSFATYFRWVL [H2BW1_Y84_R87W] | 0.953 | 1.28 | 1.32 | 1.53 | 5.48 | 1.47 | 5.6 | 3.21 | 1.04 | 4.5 | 2.76 | 3.54 | 1.98 | 2.46 | 1.85 | 1.98 |
| KERNQYGGVMV [MMP21_Y347_E349G] | 0.525 | 0.74 | 0.854 | 0.534 | 0.425 | 0.594 | 0.474 | 0.507 | 0.44 | 0.394 | 0.556 | 0.394 | 0.475 | 0.474 | 0.361 | 0.418 |
| NLMPAYFKCIQ [CYP21A2_Y190_YF] | 0.494 | 0.904 | 0.639 | 1.4 | 1.61 | 1.6 | 0.61 | 0.526 | 1.09 | 0.539 | 0.546 | 0.707 | 1.01 | 0.768 | 0.74 | 0.617 |
| CSHKFYGKQCC [ADAMTS16_Y1211] | 0.765 | 1.04 | 1.01 | 0.607 | 0.513 | 0.673 | 0.415 | 0.268 | 0.505 | 0.396 | 0.346 | 0.477 | 0.499 | 0.448 | 0.498 | 0.391 |
| RSFPSYFTSHV [NEFL_Y442_YF] | 0.73 | 0.888 | 1.08 | 0.869 | 1.8 | 0.887 | 0.477 | 0.481 | 0.772 | 0.629 | 0.65 | 0.761 | 0.634 | 0.525 | 0.672 | 0.899 |
| MSRDVYSTDCY [NTRK2_Y702_Y706C] | 0.932 | 1.15 | 0.719 | 0.993 | 1.06 | 1.14 | 0.972 | 2.32 | 0.993 | 1.51 | 2.1 | 0.701 | 0.766 | 0.631 | 0.718 | 0.726 |
| SGGGLYRDMGA [CBX8_Y321] | 0.542 | 0.842 | 0.589 | 0.564 | 0.557 | 0.618 | 0.428 | 0.373 | 0.502 | 0.42 | 0.48 | 0.624 | 0.522 | 0.373 | 0.53 | 0.524 |

Continued, in another order:

| SH2 binding enrichment (c-Src SH2) | SH2 binding enrichment (Grb2 SH2) | SH2 binding enrichment (SHP2-C SH2) | Sequence | phosphorylation enrichment (AncSZ) | phosphorylation enrichment (Jak2) | phosphorylation enrichment (Fes) | phosphorylation enrichment (Hck) | phosphorylation enrichment (c-Src) | phosphorylation enrichment (c-Abl (mouse)) | phosphorylation enrichment (MERTK) | phosphorylation enrichment (Fyn) | phosphorylation enrichment (EPHB2) | phosphorylation enrichment (FGFR3) | phosphorylation enrichment (Fer (mouse)) | phosphorylation enrichment (EPHB1) | phosphorylation enrichment (FGFR1) |
| --- | --- | --- | --- | --- | --- | --- | --- | --- | --- | --- | --- | --- | --- | --- | --- | --- |
| 0.823 | 1.12 | 0.996 | SCPANYFAFKI [FAM3D_Y65_P60S] | 1.16 | 5.24 | 1.08 | 1.05 | 2.62 | 3.31 | 7.13 | 0.901 | 2.09 | 5.33 | 0.785 | 3.97 | 7.58 |
| 0.454 | 0.805 | 0.622 | CEDMEYLESKQ [BTK_Y511_A508D] | 1.3 | 1.22 | 1.35 | 0.643 | 0.53 | 0.828 | 0.497 | 0.494 | 0.783 | 0.734 | 0.652 | 0.652 | 0.476 |
| 1.55 | 0.711 | 0.704 | HLLRIYYDITD [MMP27_Y307_W304L] | 1.46 | 1.91 | 2.15 | 0.891 | 1.66 | 1.63 | 0.88 | 1.07 | 1.99 | 2.33 | 1.23 | 1.93 | 2.49 |
| 0.451 | 0.834 | 0.668 | IEEGTYGVVYR [CDK11B_Y449] | 1.33 | 0.902 | 1.01 | 7.29 | 5.65 | 1.3 | 4 | 8.95 | 10.8 | 0.702 | 7.46 | 4.1 | 0.509 |
| 6.95 | 1 | 2.47 | YTTIHYNYMCN [TP53_Y234_C229Y] | 1.43 | 1.26 | 1.16 | 0.917 | 1.27 | 0.92 | 4.13 | 0.976 | 0.897 | 3.35 | 2.08 | 1.81 | 4.5 |
| 21.6 | 0.883 | 0.697 | IETGRYEILTE | 1.07 | 0.951 | 1 | 0.487 | 0.479 | 0.854 | 0.533 | 0.488 | 0.762 | 0.632 | 0.464 | 0.595 | 0.491 |
| 5.8 | 0.911 | 0.816 | FQLPFYNTVPS [BMPR1A_Y458_M460T_YF] | 0.748 | 0.704 | 0.828 | 0.687 | 0.565 | 0.625 | 0.569 | 0.465 | 0.45 | 0.699 | 0.642 | 0.526 | 0.414 |
